# Test results published in patent US20150210738, “MOLECULAR SLEDS AND USES […]” (The Broad Institute, Inc., published 2015).
# No end group written: not given here.
# T1: 8-Actin-C (beta-actin C-terminal peptide)
# T1 chain: SIVHRKC(Cy3B)F
# T2: random peptide (scrambled pVIc) (synthetic)
# T2 chain: SFRRCGLRQVK
# T3: pVIc (C-terminal peptide of pVI) (Human adenovirus 2, UniProt P03274)
# T3 chain: GVQSLKRRRCF
# B1: 18-mer dsDNA (dsDNA)
# DNA 1: CAGGAAACAGCTATGACC
# DNA 2: GGTCATAGCTGTTTCCTG
# B2: 12-mer dsDNA (dsDNA)
# DNA 1: GACGACTAGGAT
# DNA 2: ATCCTAGTCGTC
# What was measured:
# [1] = molecular target: streptavidin-Alexa Fluor 546 (UniProt P22629 P22629:25-183); experiment: FRET; streptavidin alone does not bind; conditions: tags: Alexa Fluor 546; Invitrogen; chain copies: 4; label: 5'-fluorescein
# Source text: The relative fluorescence intensity is the fluorescence intensity at a specific concentration of acceptor divided by I₀ which is the initial fluorescence intensity, i.e. the intensity of the donor in the absence of acceptor. The line through the closed circles represents the nonlinear regression fit of the experimental data to a 1:1 ligand-receptor model. […] Both curves were corrected for inner filter effects, which were less than 10% at the highest concentration of acceptor.
# Steady state fluorescence measurements were measured with an ISS PC1 spectrofluorometer (ISS, Champaign, Ill.) with a 300-W xenon arc lamp and 19 amp lamp current. […] The solution was mixed and allowed to equilibrate for 2 minutes before measuring the fluorescence intensity for a maximum of 10 seconds (corresponds to an average of eleven measurements).
# [2] = molecular target: (pVIc-biotin):streptavidin complex (Human adenovirus 2 / Streptomyces …, UniProt P03274;P22629 P03274:240-250,P22629:25-183); experiment: FRET quenching, 20 mM Na phosphate pH 7.5, 0.05% DDM; conditions: tags: pVIc Cys10' PEG-biotin, streptavidin-Alexa Fluor 546 (Invitrogen); label: 5'-fluorescein
# [3] = molecular target: T1, 8-Actin-C (beta-actin C-terminal …); experiment: FP; Cy3B-peptide, pH 7; conditions: protein: synthetic; tags: synthetic peptide; Cy3B at Cys7'; label: 5'-fluorescein (unlabeled with Cy3B-labeled protein)
# [4] = molecular target: T2, random peptide (scrambled pVIc); experiment: FP; scrambled pVIc; does not slide on DNA; conditions: tags: Cy3B at Cys5'; label: 5'-fluorescein (unlabeled with Cy3B-labeled protein)
# [5] = molecular target: T3, pVIc (C-terminal peptide of pVI); experiment: FP; Cy3B-pVIc, 20 mM Hepes pH 7, 0.025% DDM, 10 mM NaCl; 7 bp site; conditions: protein: synthetic; tags: synthetic peptide; Cy3B at Cys10' in pH 7 and sliding assays; label: 5'-fluorescein (unlabeled with Cy3B-labeled protein)
# [6] = molecular target: pVI (precursor to protein VI) (Human adenovirus 2, UniProt P03274 P03274:1-250); experiment: FP; 0.02 M NaCl, pH 8; 155, 328, 449, 1044 nM at 0.03, 0.04, 0.05, 0.06 M NaCl; 2.9 ion pairs; conditions: label: 5'-fluorescein (unlabeled with Cy3B-labeled protein)
# pVI (precursor to protein VI), sequence (P03274 whole entry, one chain of several): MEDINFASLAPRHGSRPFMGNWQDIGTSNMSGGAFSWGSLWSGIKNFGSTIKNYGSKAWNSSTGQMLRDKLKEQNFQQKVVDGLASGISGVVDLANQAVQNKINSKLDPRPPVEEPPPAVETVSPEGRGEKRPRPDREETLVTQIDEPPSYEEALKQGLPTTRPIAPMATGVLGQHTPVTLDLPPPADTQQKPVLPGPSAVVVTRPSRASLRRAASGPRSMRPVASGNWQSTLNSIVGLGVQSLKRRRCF
# streptavidin-Alexa Fluor 546, sequence (P22629 25-183, one chain of several): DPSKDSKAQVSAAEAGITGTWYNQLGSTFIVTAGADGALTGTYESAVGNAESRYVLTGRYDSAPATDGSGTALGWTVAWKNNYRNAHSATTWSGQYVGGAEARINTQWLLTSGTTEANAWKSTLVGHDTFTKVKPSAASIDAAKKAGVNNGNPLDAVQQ
# (pVIc-biotin):streptavidin complex, sequence (P22629 25-183, one chain of several): as above
Binder,binding result [1],Kd [2] [nM],Kd [3] [nM],Kd [4] [nM],Kd [5] [nM],Kd [6] [nM]
B1,no binding,35,–,–,–,–
B2,–,–,5,646,264,55
